From patent US20060149521A1 (University of California, published 2006)

Experiments:
[1] = molecular target: hTRβ ligand binding domain (hTRβ LBD), in vitro translated, as used in the GST-GRIP1 binding and peptide competition assays (human) (UniProt P10828); assay: GST-GRIP1 (563-767) mutant pull-down of in vitro translated TR
[2] = molecular target: hTRβ ligand binding domain (hTRβ LBD), in vitro translated, as used in the GST-GRIP1 binding and peptide competition assays (human) (UniProt P10828); assay: titration of the amount of GST-GRIP1 fragment in the pull-down of TR; assigned to the fragment with only NR-box 3 functional
[3] = molecular target: GRIP1 563-767 His6 GST fusion protein (mouse) (UniProt Q61026); assay: GST-GRIP1 (563-767) pull-down
[4] = molecular target: GST-GRIP1 (GRIP1 amino acids 563-1121) (mouse) (UniProt Q61026); assay: GST-GRIP1 pull-down of in vitro translated GR
[5] = molecular target: hTRβ ligand binding domain (hTRβ LBD), in vitro translated, as used in the GST-GRIP1 binding and peptide competition assays (human) (UniProt P10828); assay: titration of the amount of GST-GRIP1 fragment in the pull-down of TR
[6] = molecular target: hTRβ ligand binding domain (hTRβ LBD), in vitro translated, as used in the GST-GRIP1 binding and peptide competition assays (human) (UniProt P10828); assay: titration of the amount of GST-GRIP1 fragment in the pull-down of TR; assigned to the fragment with only NR-box 2 functional
[7] = molecular target: glucocorticoid receptor (GR), full length; assay: peptide competition of GR binding to GRIP1
[8] = molecular target: hTRβ ligand binding domain (hTRβ LBD), in vitro translated, as used in the GST-GRIP1 binding and peptide competition assays (human) (UniProt P10828); assay: peptide competition of hTRβ LBD binding to GST-GRIP1 (563-767) beads
[9] = molecular target: hTRβ ligand binding domain (hTRβ LBD), in vitro translated, as used in the GST-GRIP1 binding and peptide competition assays (human) (UniProt P10828); assay: peptide competition (FIG. 11c)
[10] = molecular target: T1, hTRβ ligand binding domain (hTRβ LBD), in vitro translated, as used in the GST-GRIP1 binding and peptide … (human, UniProt P10828 202-461, limits assumed, [35S]-methionine labelled (in vitro translated)); assay: peptide competition of hTRβ LBD binding to GST-GRIP1 (563-767) beads
T1 construct: domain: LBD; also called TR LBD; TR-LBD
T1 sequence (looked up): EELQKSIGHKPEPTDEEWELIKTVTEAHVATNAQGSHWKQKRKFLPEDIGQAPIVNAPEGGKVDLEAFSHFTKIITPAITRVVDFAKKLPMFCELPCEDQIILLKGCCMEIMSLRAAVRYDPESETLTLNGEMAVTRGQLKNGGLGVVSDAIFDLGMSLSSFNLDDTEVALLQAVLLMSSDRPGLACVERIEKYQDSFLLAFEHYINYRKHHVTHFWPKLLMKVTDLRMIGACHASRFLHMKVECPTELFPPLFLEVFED
Protocol: Expression was quantified by phosphoimager analysis (BAS2000, Fuji). […] Binding was performed in the binding buffer described above supplemented with 20 μg/ml BSA and appropriate hormone. […] The reaction was incubated at 4° C. under rotation for 2 hours. In case of competition experiments, the appropriate concentration of peptides were added to the reaction before addition of receptors. […] Beads were washed five times with 200 μl binding buffer+BSA at 4° C. before elution of the bound proteins in 20 μl SDS loading buffer. Eluted beads and input labeled protein were subjected to SDS-PAGE. The fraction of bound nuclear receptors was determined by phosphoimager analysis.

[11] = molecular target: T2, GRIP1, full-length (mouse, UniProt Q61026 5-1462, limits assumed, [35S]-Met labelled in the pull-down assays (in vitro translated from pSG5-GRIP1)); assay: cell-based or functional assay
[12] = molecular target: T2, GRIP1, full-length; assay: GST-hERα LBD pull-down of 35S-GRIP1, 1 µM DES
Protocol: (§1) The wild-type and mutant GST-hERα LBDs were expressed in BL21(DE3) cells. […] Cleared extracts containing the GST-hERα LBDs were incubated in buffer alone (50 mM Tris, pH 7.4, 150 mM NaCl, 2 mM EDTA, 1 mM DTT, 0.5% NP-40 and a protease inhibitor cocktail) or with 1 μM of either DES or OHT for 1 hour at 4° C. Extract samples containing thirty pmol of GST-LBD were then incubated with 10 μl glutathioneSepharose-4B beads (Pharmacia) for 1 hour at 4° C. […] Immobilized GSThERα LBDs were incubated for 2.5 hours with 2.5 μl aliquots of crude translation reaction mixture diluted in 300 μl of Tris-buffered saline (TBS). After five washes in TBS containing 0.05% NP-40, proteins were eluted by boiling the beads for 10 minutes in sample buffer.

[13] = molecular target: T2, GRIP1, full-length; assay: GST-hERα LBD pull-down of 35S-GRIP1, no ligand or 1 µM OHT
Protocol: as §1

[14] = molecular target: T3, Human TRβ LBD (His6-E202-D461), purified, liganded with T3 (human, UniProt P10828 202-461); assay: cocrystallisation and X-ray structure, 3.6 Å, T3-liganded
T3 construct: range 202-461; Protein of the cocrystal; also called hTRβ LBD; hTR LBD
T3 sequence: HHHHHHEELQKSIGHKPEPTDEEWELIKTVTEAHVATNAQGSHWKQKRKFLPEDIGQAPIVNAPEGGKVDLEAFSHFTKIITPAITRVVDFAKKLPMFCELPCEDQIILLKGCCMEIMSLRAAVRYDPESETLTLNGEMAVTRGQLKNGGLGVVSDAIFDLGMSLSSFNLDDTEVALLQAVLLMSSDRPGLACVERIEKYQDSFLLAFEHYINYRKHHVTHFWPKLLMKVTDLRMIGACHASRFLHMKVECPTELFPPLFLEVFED
Protocol: Possible rotation function solutions were calculated using normalized amplitudes in AMORE from a model of hTRβ LBD with the ligand, T₃, omitted; translation function solutions were subsequently determined using TFFC for the two rotation solutions with the highest correlation coefficients. […] After rigid body refinement of the two hTRβ LBD molecules, electron density maps were calculated.

T2 sequence (Q61026 5-1462 limits assumed): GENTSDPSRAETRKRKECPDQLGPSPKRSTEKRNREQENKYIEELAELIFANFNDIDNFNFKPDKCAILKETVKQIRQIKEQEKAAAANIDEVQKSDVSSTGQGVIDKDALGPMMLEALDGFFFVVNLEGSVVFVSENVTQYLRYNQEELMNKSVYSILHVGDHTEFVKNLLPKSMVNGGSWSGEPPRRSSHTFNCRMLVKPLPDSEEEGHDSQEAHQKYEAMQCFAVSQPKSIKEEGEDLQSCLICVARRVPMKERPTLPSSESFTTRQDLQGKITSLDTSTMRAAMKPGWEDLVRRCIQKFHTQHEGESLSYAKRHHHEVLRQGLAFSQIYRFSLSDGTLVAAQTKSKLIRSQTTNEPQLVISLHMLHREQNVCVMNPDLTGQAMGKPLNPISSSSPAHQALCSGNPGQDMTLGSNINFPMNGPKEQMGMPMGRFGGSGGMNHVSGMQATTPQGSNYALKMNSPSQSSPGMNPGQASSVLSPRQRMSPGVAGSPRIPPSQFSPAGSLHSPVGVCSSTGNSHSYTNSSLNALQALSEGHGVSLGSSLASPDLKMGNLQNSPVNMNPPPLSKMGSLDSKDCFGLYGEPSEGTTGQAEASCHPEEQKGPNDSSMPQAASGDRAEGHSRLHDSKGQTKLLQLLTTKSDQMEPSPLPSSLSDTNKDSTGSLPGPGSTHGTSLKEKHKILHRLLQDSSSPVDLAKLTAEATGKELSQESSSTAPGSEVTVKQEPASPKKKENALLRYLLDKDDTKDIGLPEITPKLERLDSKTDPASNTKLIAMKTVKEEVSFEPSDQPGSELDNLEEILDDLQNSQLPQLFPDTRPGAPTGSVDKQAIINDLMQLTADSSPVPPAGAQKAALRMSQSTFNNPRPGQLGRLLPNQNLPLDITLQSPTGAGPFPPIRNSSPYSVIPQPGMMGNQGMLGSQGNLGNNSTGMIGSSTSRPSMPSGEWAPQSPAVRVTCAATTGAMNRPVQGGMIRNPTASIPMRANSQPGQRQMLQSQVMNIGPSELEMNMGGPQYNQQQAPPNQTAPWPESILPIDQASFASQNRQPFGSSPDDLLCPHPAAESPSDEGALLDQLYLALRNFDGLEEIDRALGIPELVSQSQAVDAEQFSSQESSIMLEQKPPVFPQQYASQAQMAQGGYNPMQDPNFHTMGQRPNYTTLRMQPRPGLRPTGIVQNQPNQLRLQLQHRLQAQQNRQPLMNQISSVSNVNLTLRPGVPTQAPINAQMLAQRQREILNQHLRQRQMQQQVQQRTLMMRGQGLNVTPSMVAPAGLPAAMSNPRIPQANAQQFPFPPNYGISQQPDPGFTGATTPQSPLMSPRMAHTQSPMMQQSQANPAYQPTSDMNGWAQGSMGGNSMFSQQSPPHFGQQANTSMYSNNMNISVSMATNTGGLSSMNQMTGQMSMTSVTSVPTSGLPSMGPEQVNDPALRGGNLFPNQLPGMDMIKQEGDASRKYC
glucocorticoid receptor (GR), full length, sequence (P06536 whole entry, the tested form may be a part): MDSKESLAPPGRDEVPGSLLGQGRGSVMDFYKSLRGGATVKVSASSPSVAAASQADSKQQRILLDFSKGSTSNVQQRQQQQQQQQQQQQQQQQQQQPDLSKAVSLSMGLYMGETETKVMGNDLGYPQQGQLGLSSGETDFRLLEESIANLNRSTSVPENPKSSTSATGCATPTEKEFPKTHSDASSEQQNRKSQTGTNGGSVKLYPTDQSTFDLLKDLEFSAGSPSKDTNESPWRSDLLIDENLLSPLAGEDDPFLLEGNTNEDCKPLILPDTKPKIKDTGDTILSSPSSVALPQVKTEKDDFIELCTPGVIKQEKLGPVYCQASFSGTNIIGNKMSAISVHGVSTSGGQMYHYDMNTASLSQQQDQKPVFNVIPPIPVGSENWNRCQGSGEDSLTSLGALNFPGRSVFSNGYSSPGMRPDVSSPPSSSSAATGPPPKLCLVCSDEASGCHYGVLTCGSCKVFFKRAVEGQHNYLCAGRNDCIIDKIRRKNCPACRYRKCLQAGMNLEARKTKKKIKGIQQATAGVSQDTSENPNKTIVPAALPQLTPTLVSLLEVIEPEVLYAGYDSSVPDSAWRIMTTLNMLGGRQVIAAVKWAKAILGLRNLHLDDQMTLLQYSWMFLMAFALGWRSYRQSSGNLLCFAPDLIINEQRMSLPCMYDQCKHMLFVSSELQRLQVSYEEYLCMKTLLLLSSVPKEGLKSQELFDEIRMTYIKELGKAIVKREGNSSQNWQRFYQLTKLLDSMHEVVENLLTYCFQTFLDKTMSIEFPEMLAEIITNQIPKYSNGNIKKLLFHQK
GRIP1 563-767 His6 GST fusion protein (mouse), sequence (Q61026 other isoform, or with tags, fused parts or gaps): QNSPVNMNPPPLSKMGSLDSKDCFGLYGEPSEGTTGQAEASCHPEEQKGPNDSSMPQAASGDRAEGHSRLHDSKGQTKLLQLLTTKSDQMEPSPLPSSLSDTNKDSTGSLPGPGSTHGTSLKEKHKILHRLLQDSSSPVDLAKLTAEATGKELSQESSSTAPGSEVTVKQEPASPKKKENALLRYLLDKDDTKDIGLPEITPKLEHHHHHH

Molecule: GST-GRIP1 (563-767) His6 with non-functional NR-box 2 (hydrophobic residues of NR-box 2 replaced with alanine) (from UniProt Q61026 563-767)
- loss of TR binding [1]: 50%
- EC50 [2]: 4 µM

Molecule: glucocorticoid receptor (GR), full length
- affinity as a fraction of that of TR [3]: 0.2 fold of TR
- fold increase of binding against GRIP1 (563-767) [4]: 3 fold

Molecule: GST-GRIP1 (563-767) His6 with non-functional NR-box 3 (hydrophobic residues of NR-box 3 replaced with alanine) (from UniProt Q61026 563-767)
- fold stronger binding of TR for NR-box 2 over NR-box 3 [5]: 4 fold
- EC50 [6]: 1 µM

Molecule: peptide containing the p53 binding site (FxxLW motif)
- fold weaker binding than a peptide containing NR-box 3 [7]: 10 fold

Molecule: peptide containing GRIP1 NR-box 1
- EC50 [8]: 130 µM

Molecule: peptide containing the VP16 binding site (FxxAL motif)
- fold weaker binding than a peptide containing NR-box 3 [7]: 10 fold

Molecule: NR-box 2 peptide with the isoleucine of NR-box 2 replaced by phenylalanine
- fold reduction of affinity against the NR-box 2 peptide [9]: 10 fold

Molecule: ENALLRYLLDKDD [GRIP1 NR-box 3 peptide ENALLRYLLDKDD]
- EC50 [10]: 4 µM

B1: human thyroid hormone receptor β1 (hTRβ1), full-length 461 amino acids, wild type (receptor, UniProt P10828 1-461, looked up)
chain: MTPNSMTENGLTAWDKPKHCPDREHDWKLVGMSEACLHRKSHSERRSTLKNEQSSPHLIQTTWTSSIFHLDHDDVNDQSVSSAQTFQTEEKKCKGYIPSYLDKDELCVVCGDKATGYHYRCITCEGCKGFFRRTIQKNLHPSYSCKYEGKCVIDKVTRNQCQECRFKKCIYVGMATDLVLDDSKRLAKRKLIEENREKRRREELQKSIGHKPEPTDEEWELIKTVTEAHVATNAQGSHWKQKRKFLPEDIGQAPIVNAPEGGKVDLEAFSHFTKIITPAITRVVDFAKKLPMFCELPCEDQIILLKGCCMEIMSLRAAVRYDPESETLTLNGEMAVTRGQLKNGGLGVVSDAIFDLGMSLSSFNLDDTEVALLQAVLLMSSDRPGLACVERIEKYQDSFLLAFEHYINYRKHHVTHFWPKLLMKVTDLRMIGACHASRFLHMKVECPTELFPPLFLEVFED
modifications: [35S]-Met labelled (in vitro translated)
- T3-dependent reporter gene activity in HeLa cells [11]: 5 fold

B2: GST-hERα LBD (282-595) E542K (receptor)
chain: SAGDMRAANLWPSPLMIKRSKKNSLALSLTADQMVSALLDAEPPILYSEYDPTRPFSEASMMGLLTNLADRELVHMINWAKRVPGFVDLTLHDQVHLLECAWLEILMIGLVWRSMEHPGKLLFAPNLLLDRNQGKCVEGMVEIFDMLLATSSRFRMMNLQGEEFVCLKSIILLNSGVYTFLSSTLKSLEEKDHIHRVLDKITDTLIHLMAKAGLTLQQQHQRLAQLLLILSHIRHMSNKGMEHLYSMKCKNVVPLYDLLLKMLDAHRLHAPTSRGGASVEETDQSHLATAGSTSSHSLQKYYITGEAEGFPATV
notes: not shown: GST carrier (pGEX-3X) at the N end and its linker
- binding result [12]: no binding

B3: GST-hERα LBD (282-595) I358R (receptor)
chain: SAGDMRAANLWPSPLMIKRSKKNSLALSLTADQMVSALLDAEPPILYSEYDPTRPFSEASMMGLLTNLADRELVHMRNWAKRVPGFVDLTLHDQVHLLECAWLEILMIGLVWRSMEHPGKLLFAPNLLLDRNQGKCVEGMVEIFDMLLATSSRFRMMNLQGEEFVCLKSIILLNSGVYTFLSSTLKSLEEKDHIHRVLDKITDTLIHLMAKAGLTLQQQHQRLAQLLLILSHIRHMSNKGMEHLYSMKCKNVVPLYDLLLEMLDAHRLHAPTSRGGASVEETDQSHLATAGSTSSHSLQKYYITGEAEGFPATV
notes: as for B2
- binding result [13]: no binding

B4: GST-hERα LBD (282-595) L539R (receptor)
chain: SAGDMRAANLWPSPLMIKRSKKNSLALSLTADQMVSALLDAEPPILYSEYDPTRPFSEASMMGLLTNLADRELVHMINWAKRVPGFVDLTLHDQVHLLECAWLEILMIGLVWRSMEHPGKLLFAPNLLLDRNQGKCVEGMVEIFDMLLATSSRFRMMNLQGEEFVCLKSIILLNSGVYTFLSSTLKSLEEKDHIHRVLDKITDTLIHLMAKAGLTLQQQHQRLAQLLLILSHIRHMSNKGMEHLYSMKCKNVVPLYDRLLEMLDAHRLHAPTSRGGASVEETDQSHLATAGSTSSHSLQKYYITGEAEGFPATV
notes: as for B2
- binding result [13]: no binding

B5: GST-hERα LBD (282-595) V376R (receptor)
chain: SAGDMRAANLWPSPLMIKRSKKNSLALSLTADQMVSALLDAEPPILYSEYDPTRPFSEASMMGLLTNLADRELVHMINWAKRVPGFVDLTLHDQRHLLECAWLEILMIGLVWRSMEHPGKLLFAPNLLLDRNQGKCVEGMVEIFDMLLATSSRFRMMNLQGEEFVCLKSIILLNSGVYTFLSSTLKSLEEKDHIHRVLDKITDTLIHLMAKAGLTLQQQHQRLAQLLLILSHIRHMSNKGMEHLYSMKCKNVVPLYDLLLEMLDAHRLHAPTSRGGASVEETDQSHLATAGSTSSHSLQKYYITGEAEGFPATV
notes: as for B2
- binding result [13]: no binding

B6: GST-hERα LBD (282-595) K362A (receptor)
chain: SAGDMRAANLWPSPLMIKRSKKNSLALSLTADQMVSALLDAEPPILYSEYDPTRPFSEASMMGLLTNLADRELVHMINWAARVPGFVDLTLHDQVHLLECAWLEILMIGLVWRSMEHPGKLLFAPNLLLDRNQGKCVEGMVEIFDMLLATSSRFRMMNLQGEEFVCLKSIILLNSGVYTFLSSTLKSLEEKDHIHRVLDKITDTLIHLMAKAGLTLQQQHQRLAQLLLILSHIRHMSNKGMEHLYSMKCKNVVPLYDLLLEMLDAHRLHAPTSRGGASVEETDQSHLATAGSTSSHSLQKYYITGEAEGFPATV
notes: as for B2
- binding result [12]: no binding

Molecule: KHKILHRLLQDSS (also called GRIP1 site 2 peptide) [GRIP1 NR-box 2 peptide 686-KHKILHRLLQDSS-698]
- binding result [14]: binds

Molecule: EKHKILHRLLQDS (also called original NR-box 2 peptide) [GRIP1 NR-box 2 peptide EKHKILHRLLQDS]
- EC50 [10]: 1.5 µM
